The text below walks through data of the supplement of paper PMC7125110.

What is called kcat is the maximal rate divided by the concentration of active sites. Usually KM stands for the concentration of substrate that gives half-maximal velocity.

B1: glmS ribozyme (parent)
chain: AUAAAAGCGCCAGAACUACAGAAAUGUAGUUGACGAGGAGGAGGUUUAUCGAAUUUUCGGCGGAUGCCUCCAAA

± gives the standard error. For part of these data: This sample holds only a part of the variants without activity. Where only a bound is given, the exact number is not on record here.

Holding throughout (conditions): with glucosamine-6-phosphate
In series [1] the parent is B1. Put plainly: kcat; higher = faster cleavage; RNA array. Summed up: (§1)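 On sequenced MiSeq chips, barcoded ribozyme variants were made in situ by E. coli RNA polymerase and followed at 37 °C through a hybridised Cy3 probe. Glucosamine-6-phosphate was flowed in at 40 μM to 10 mM in HEPES/KCl/Mg(OAc)2 buffer. Exponential fits to normalised per-tile medians gave kobs, and weighted Michaelis–Menten fits gave kcat and KM.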

The variants in series [2] derive from B1. In words: KM; higher = weaker cofactor use; RNA array. In a few lines: as §1
Series [3] covers variants of B1. In words: self-cleavage kobs at 40 uM GlcN6P; higher = faster cleavage; RNA array. Summed up:
as §1

In series [4] the parent is B1. Put plainly: self-cleavage kobs at 160 uM GlcN6P; higher = faster cleavage; RNA array. Summed up:
as §1

Variants of B1 are the subject of series [5]. In words: self-cleavage kobs at 640 uM GlcN6P; higher = faster cleavage; RNA array. Summed up: as §1
Series [6] covers variants of B1. Put plainly: self-cleavage kobs at 2500 uM GlcN6P; higher = faster cleavage; RNA array. In a few lines:
as §1

The variants in series [7] derive from B1. Put plainly: self-cleavage kobs at 10000 uM GlcN6P; higher = faster cleavage; RNA array. Summed up: as §1

In the case of U31G C67A, the kcat in series [1] worked out at 0.00185 ± 0.00043 s⁻¹. In series [2], the KM was 740 ± 270 µM. Further, the “self-cleavage kobs at 40 uM GlcN6P” value in series [3] came to 0.000107 ± 1.8e-05 s⁻¹. Besides, the “self-cleavage kobs at 160 uM GlcN6P” value in series [4] is 0.000285 ± 6.9e-05 s⁻¹. Also, the “self-cleavage kobs at 640 uM GlcN6P” value in series [5] was 0.000858 ± 0.00013 s⁻¹. In series [6], the “self-cleavage kobs at 2500 uM GlcN6P” value worked out at 0.00123 ± 0.00024 s⁻¹. Moreover, the “self-cleavage kobs at 10000 uM GlcN6P” value in series [7] was found to be 0.00286 ± 0.00065 s⁻¹.
As for G32A U54A, the turnover number (kcat) in series [1] was determined as 0.00386 ± 0.001 s⁻¹. In addition, the Michaelis-Menten constant (KM) in series [2] is 3520 ± 1300 µM. Further, the “self-cleavage kobs at 40 uM GlcN6P” value in series [3] came to 6.3e-05 ± 1.3e-05 s⁻¹. Moreover, the “self-cleavage kobs at 160 uM GlcN6P” value in series [4] is 0.000125 ± 2.9e-05 s⁻¹. In addition, the “self-cleavage kobs at 640 uM GlcN6P” value in series [5] was 0.00067 ± 0.00011 s⁻¹. Also, in series [6], the “self-cleavage kobs at 2500 uM GlcN6P” value was determined as 0.00157 ± 0.00026 s⁻¹. Also, the “self-cleavage kobs at 10000 uM GlcN6P” value in series [7] came out at 0.00286 ± 0.00045 s⁻¹.
As for G41U U54G, in series [1], the turnover number (kcat) is 0.000782 ± 0.00031 s⁻¹. The “self-cleavage kobs at 40 uM GlcN6P” value in series [3] was determined as 0.000133 ± 1.6e-05 s⁻¹. In addition, in series [4], the “self-cleavage kobs at 160 uM GlcN6P” value came to 0.000463 ± 0.00012 s⁻¹. Also, in series [5], the “self-cleavage kobs at 640 uM GlcN6P” value turned out to be 0.000458 ± 9.3e-05 s⁻¹. Further, the “self-cleavage kobs at 2500 uM GlcN6P” value in series [6] came out at 0.00134 ± 0.00026 s⁻¹.
Take C11G G63A C68U: the kcat in series [1] was < 1e-05 s⁻¹.
For the variant G13A G59A, the catalytic constant (kcat) in series [1] was < 1e-05 s⁻¹.
For A39U G44A, the kcat in series [1] stood at 0.00136 ± 0.00031 s⁻¹. The KM in series [2] worked out at 572 ± 210 µM. Besides, the “self-cleavage kobs at 40 uM GlcN6P” value in series [3] amounted to 0.000115 ± 1.3e-05 s⁻¹. Also, the “self-cleavage kobs at 160 uM GlcN6P” value in series [4] amounted to 0.00021 ± 3.9e-05 s⁻¹. Also, in series [5], the “self-cleavage kobs at 640 uM GlcN6P” value was 0.00078 ± 9.9e-05 s⁻¹. Moreover, the “self-cleavage kobs at 2500 uM GlcN6P” value in series [6] was 0.001 ± 0.00017 s⁻¹. For the same variant, the “self-cleavage kobs at 10000 uM GlcN6P” value in series [7] was 0.00144 ± 0.00021 s⁻¹.
On to U31C A64G, for which the catalytic constant (kcat) in series [1] came to 0.00541 ± 0.0022 s⁻¹. In series [3], the “self-cleavage kobs at 40 uM GlcN6P” value came to 7.83e-05 ± 1.1e-05 s⁻¹. Also, in series [4], the “self-cleavage kobs at 160 uM GlcN6P” value came out at 0.000159 ± 2.1e-05 s⁻¹. Further, in series [5], the “self-cleavage kobs at 640 uM GlcN6P” value stood at 0.00109 ± 0.00013 s⁻¹. In addition, the “self-cleavage kobs at 2500 uM GlcN6P” value in series [6] was found to be 0.00224 ± 0.00024 s⁻¹. For the same variant, in series [7], the “self-cleavage kobs at 10000 uM GlcN6P” value worked out at 0.00363 ± 0.00047 s⁻¹.
As for C11A G13A, in series [1], the turnover number (kcat) is < 1e-05 s⁻¹. In addition, the “self-cleavage kobs at 40 uM GlcN6P” value in series [3] is < 1e-05 s⁻¹.
For A15G C61A, the kcat in series [1] is < 1e-05 s⁻¹.
Turning to U56G U69C C70A, the kcat in series [1] came to 6.04e-05 ± 1.7e-05 s⁻¹. In series [4], the “self-cleavage kobs at 160 uM GlcN6P” value was 4.37e-05 ± 1.6e-05 s⁻¹. In series [5], the “self-cleavage kobs at 640 uM GlcN6P” value was 8.99e-05 ± 2.7e-05 s⁻¹. Besides, in series [6], the “self-cleavage kobs at 2500 uM GlcN6P” value was 6.56e-05 ± 1.5e-05 s⁻¹.
With C11U G38A G41A A42G, the kcat in series [1] was determined as 1.14e-05 ± 5.7e-06 s⁻¹. In series [3], the “self-cleavage kobs at 40 uM GlcN6P” value was < 1e-05 s⁻¹. In addition, in series [4], the “self-cleavage kobs at 160 uM GlcN6P” value was < 1e-05 s⁻¹.
Take A12U G66C: the catalytic constant (kcat) in series [1] was 0.00201 ± 0.00014 s⁻¹. Also, the Michaelis-Menten constant (KM) in series [2] was determined as 1270 ± 160 µM. The “self-cleavage kobs at 40 uM GlcN6P” value in series [3] turned out to be 6.36e-05 ± 1.1e-05 s⁻¹. For the same variant, the “self-cleavage kobs at 640 uM GlcN6P” value in series [5] came out at 0.00058 ± 0.00016 s⁻¹. Moreover, in series [6], the “self-cleavage kobs at 2500 uM GlcN6P” value came out at 0.00145 ± 0.00028 s⁻¹. Besides, the “self-cleavage kobs at 10000 uM GlcN6P” value in series [7] was found to be 0.00177 ± 0.00022 s⁻¹.
Turning to A15U A64U, the kcat in series [1] was found to be 1.4e-05 ± 4.2e-06 s⁻¹. The “self-cleavage kobs at 40 uM GlcN6P” value in series [3] was < 1e-05 s⁻¹. The “self-cleavage kobs at 160 uM GlcN6P” value in series [4] is < 1e-05 s⁻¹.
A15U C68G: the kcat in series [1] came out at 4.37e-05 ± 1e-05 s⁻¹. The “self-cleavage kobs at 640 uM GlcN6P” value in series [5] amounted to 2.81e-05 ± 1.4e-05 s⁻¹. Besides, the “self-cleavage kobs at 2500 uM GlcN6P” value in series [6] is 4.48e-05 ± 1e-05 s⁻¹.
For G29U U46A, in series [1], the catalytic constant (kcat) was found to be 0.000356 ± 1.1e-05 s⁻¹. Besides, the Michaelis-Menten constant (KM) in series [2] came out at 2530 ± 150 µM. Also, the “self-cleavage kobs at 640 uM GlcN6P” value in series [5] came to 7.15e-05 ± 1.2e-05 s⁻¹. For the same variant, the “self-cleavage kobs at 2500 uM GlcN6P” value in series [6] amounted to 0.000184 ± 3.7e-05 s⁻¹. In series [7], the “self-cleavage kobs at 10000 uM GlcN6P” value amounted to 0.000282 ± 3.6e-05 s⁻¹.
Take A39C C71G: the kcat in series [1] amounted to 1.47e-05 ± 1.2e-06 s⁻¹. For the same variant, in series [4], the “self-cleavage kobs at 160 uM GlcN6P” value was < 1e-05 s⁻¹.
As to G43A C67U, the turnover number (kcat) in series [1] was determined as 0.000171 ± 1.4e-05 s⁻¹. The Michaelis constant (KM) in series [2] turned out to be 1110 ± 320 µM. Also, the “self-cleavage kobs at 640 uM GlcN6P” value in series [5] worked out at 6.14e-05 ± 9.1e-06 s⁻¹. Besides, in series [6], the “self-cleavage kobs at 2500 uM GlcN6P” value stood at 0.000189 ± 4.2e-05 s⁻¹. Besides, in series [7], the “self-cleavage kobs at 10000 uM GlcN6P” value amounted to 0.000152 ± 9.9e-06 s⁻¹.
For A6U U69C, the kcat in series [1] is 8.65e-05 ± 8.1e-06 s⁻¹. For the same variant, in series [5], the “self-cleavage kobs at 640 uM GlcN6P” value came out at 6.1e-05 ± 2.4e-05 s⁻¹. Moreover, in series [6], the “self-cleavage kobs at 2500 uM GlcN6P” value came out at 8.15e-05 ± 2.4e-05 s⁻¹. The “self-cleavage kobs at 10000 uM GlcN6P” value in series [7] was 7.96e-05 ± 1.8e-05 s⁻¹.
